For orientation: IC50 means the concentration needed to halve the response being measured. By EC50 is commonly meant the concentration at which the effect is half-maximal.

Assay [1] has as its target VEGF165, a splice variant of VEGF-A (UniProt P15692). Kind of assay: cell-based or functional assay.
The target is the same in assay [2]. Briefly: competitive binding in solution; 5 pM VEGF165 overnight, free VEGF165 by Quantikine sandwich ELISA. A general note: ELISA stands for enzyme-linked immunosorbent assay.
Assay [3] shares this target. Briefly: direct binding ELISA; VEGF165 coated, anti-human IgG Fc-HRP detection.

Chain of VEGF165, a splice variant of VEGF-A (P15692 other isoform, or with tags, fused parts or gaps mutant): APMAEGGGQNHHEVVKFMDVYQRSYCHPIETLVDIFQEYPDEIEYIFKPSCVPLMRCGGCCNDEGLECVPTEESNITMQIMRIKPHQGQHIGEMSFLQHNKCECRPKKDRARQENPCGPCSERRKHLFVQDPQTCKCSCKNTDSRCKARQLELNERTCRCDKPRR

With “Positive Control 1 (synthesized VEGF Trap) (from UniProt P17948 129-230; P35968 225-327) (Fc fusion)”, the inhibition of VEGF-dependent HUVEC proliferation, IC50 in assay [1] was 68 pM. The IC50 in assay [2] amounted to 5.17 pM. Also, in assay [3], the EC50 was determined as 87 pM.

For the origin of these results see patent US20170369552A1.
